Test results taken from US20240035010, “COMPOSITIONS COMPRISING A VARIANT POLYPEPTIDE AND USES THEREOF” (Arbor Biotechnologies, Inc., published 2024).
Numbering of substitutions follows the chain as printed.

T1: variant nuclease SEQ ID NO: 53 (P14R, D32R, I61R, E311R, T338G, E736G)
T1 chain: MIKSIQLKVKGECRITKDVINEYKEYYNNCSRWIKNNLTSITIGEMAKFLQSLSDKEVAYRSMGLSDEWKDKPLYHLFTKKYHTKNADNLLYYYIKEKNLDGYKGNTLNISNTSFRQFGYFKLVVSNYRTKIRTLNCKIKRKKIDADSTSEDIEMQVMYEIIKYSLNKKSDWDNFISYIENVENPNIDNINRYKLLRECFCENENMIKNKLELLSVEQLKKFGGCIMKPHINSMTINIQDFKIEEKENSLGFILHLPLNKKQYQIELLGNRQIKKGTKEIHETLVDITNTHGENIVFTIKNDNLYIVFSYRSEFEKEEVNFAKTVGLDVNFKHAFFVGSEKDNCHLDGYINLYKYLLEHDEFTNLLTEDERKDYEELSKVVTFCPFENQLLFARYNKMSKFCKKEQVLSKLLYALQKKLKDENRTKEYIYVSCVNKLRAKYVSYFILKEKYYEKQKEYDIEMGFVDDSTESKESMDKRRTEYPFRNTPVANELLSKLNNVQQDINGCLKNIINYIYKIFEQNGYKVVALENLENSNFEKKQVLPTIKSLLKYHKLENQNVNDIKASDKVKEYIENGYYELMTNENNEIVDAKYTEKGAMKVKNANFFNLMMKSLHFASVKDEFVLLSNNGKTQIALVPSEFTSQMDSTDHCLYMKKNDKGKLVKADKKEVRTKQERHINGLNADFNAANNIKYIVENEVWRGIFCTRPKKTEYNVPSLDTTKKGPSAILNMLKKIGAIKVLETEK

T2: variant nuclease E154G combination (P14R, D32R, I61R, E311R, E154G)
T2 chain: T1 chain with E154G, G338T, G736E

B1: EMX1 crRNA ; EMX1 target (ssRNA ; dsDNA)
RNA: CUUGUUGUAUAUGUCCUUUUAUAGGUAUUAAACAACCCGCCGCUUCCUGAGCCAUC
DNA 1: CCGCCGCTTCCTGAGCCATC
DNA 2: GATGGCTCAGGAAGCGGCGG
B2: AAVS1 crRNA ; AAVS1 target (ssRNA ; dsDNA)
RNA: CUUGUUGUAUAUGUCCUUUUAUAGGUAUUAAACAACUGAGAAUGGUGCGUCCUAGG
DNA 1: TGAGAATGGTGCGTCCTAGG
DNA 2: CCTAGGACGCACCATTCTCA

Experiments:
Conditions in all cases: tags: pcDNA3.1 expression
[1] = target: T1, variant nuclease SEQ ID NO: 53 (P14R, …); assay: cell_activity; % indels; HEK293T; PAM 5'-ATTG-3'
[2] = target: T2, variant nuclease E154G combination; assay: cell_activity; PAM 5'-TTTG-3'
Method in brief: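 HEK293T cells were lipofected with nuclease plasmid (pcDNA3.1 backbone) plus RNA guide plasmid, with guide omitted in negative controls. After ~72 h cells were lysed in QuickExtract and % indels were derived from NGS reads, averaged over two bioreplicates and two technical replicates.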

[3] = target: T1, variant nuclease SEQ ID NO: 53 (P14R, …); assay: cell_activity; % indels; HEK293T; PAM 5'-TTTG-3'

| Binder | indel frequency [1] | indel activity [2] | indel editing activity [3] |
| --- | --- | --- | --- |
| B1 | 11.9 fold of WT | – | – |
| B2 | – | 5.79 fold of WT | 6.11 fold of WT |
